Assay: label from the status in PepcDB records

Sequence | protein production
MIINDPVKITGIVDILIIIIFTSLGFRGFLRGFIKEISGFAEVFVLILLLYKKTEEFRRFVEPIIELSYIQALLVFFLLIHIGFLILQSLIESIISQLKLLFFNRILGLVLGLLEAFGIIAIVVYIIHSQQIFKPEYFLKESKLLDYLNPGINYLFKISKTK | failed
CASRQEHSLRIIHTTDLHGNVFPTDFKALRPTSGGMSRLASFLKAARSDRSELLLFDGGDVLQGDPTAYYYNYMDTTGTHLFSRAMNYLRYDAAIPGNHDIETGHAVYDKWVAGCDFPFLAANAIDTETGKPYWAPYKVFDRNGLRVALLGFITPAIPEWLPQSLWTGMRFDDIIESAKYWVPFVIQKEKPDFVVCVLHSGRENDNSNYLEDAGMTLAREVAGIDVLLLGHDHQEYSRRVKGAEADSVLVLNPANHLDKVSDVRLSLARKGDKVLHKRVEGGLTDISRLTPDSAFMAHFSSDEAAVRRFVNE | failed
MTTHQVKKSEAKRQHILDSGFHLVLRKGFVGVGLQEILKTSGVPKGSFYHYFESKEAFGCELLKHYISDYQIRLNQLWTTETSARDKLMNYLQCWVKDPATEQSWAESCLIVKMAAEVADLSEDMRLIMNDGVKRLIARMADLIRIGQQEGSIQTSVVPDVLAQVIYQMYLGAALLSKLYKHKAPLFQALESTKMMLDGCNHVQQDKNQ | not failed
MPGQSRFPLPLIAAFFALYVIWGSTYLVIRIGVEYWPPLMLGGIRFIIAGSLMYAFLRWRGVPAPTWAQWKAAGIIGVLLLSCGNGAVTLAEHSGVTSGVAALAVATVPLFTLLCGYFWGARNTRLEWAGIVLGMIGIGMLNLGSNLQSSPMGAALLLFAAAAWAFGSVWSKHLPLPQGAMASAAEMLVGGVVLMIGSALSGEHLDTLPPMEGWLALAYLAGFGSIIAFNAYMYLLKHVRPAAATSYAYVNPAVAVLLGIVFVGETIGIEEAMAMLVIISAVVLIGLPQWRKPKAAAQEEAA | failed
MGLWAAVHAERRGIATIIADAGRLGGGASGGLLGALMPHMPDRWSEKKQFQFDALVSLEAEIAALEAATGLSAGYNRSGRLIPLPKPHLNRIARGHSEDAERHWQAGERRFHWHVVDRPDADGWVDASAGASGFVHDTLAARVAPRSLMSALIASLRQAKFVRILEYAAVAGLDPDRGTADIGGETIAFSRCILAAGHQSFPLLQELTLGPKKPLGQPVKGQATLLKAAIDPALPTIFLDGLYIVAHEGGHVAIGSTSENRFNDPFSTDAQLDALIETARAIVPILRDAPVVERWAGLRPKAIDRDPMIGCHPDHPRLIALTGGFKVSFGLAHRLAEAAVCIADDIDCEYLLPESFAISSHIAAASR | failed
MNVPDMILYNGKITTLDPSQPEVSAIAITDGLITAVGGDELLNSATEKTKKIDLKRKRAIPGLEHHHHHH | not failed
ATAPTPASSETLSGNPALPPPVPGERHDIDSFGGRLTYWSAAPAEPTSEPPLLLIHSVNAAGSAYEVRPIFEHYARSRPVYAIELPGFGHSSRAKRQYTIRMMTDAVHSVVAEIQKVHADKRIDALALSLGSEFLARAASETPQAFRSLALVAPTGFDKKNQRWTAGSRAIPWLHSFFENPVWSESIFKLLTMKPVIGWFLKKAFGSPSIDQGMLDYDYLTTHQPGAQHAPYYFVSGYLFSQDILRIYQDLPMPVWFSHGVRGDFVDYTLKTTVEGRPNWTVTVFQTGAMPHFEVPGEFMRAYDEFLGRVTKA | failed
MSLEWCKNRLEITGRSVFVDIMQQWVTGEEVPLYRHAIQQSIRLFLAGCAGILKPVKCMEYPPFPRLVSHGTGSAVASNLAFQHWLDLLLKDAVLDGDTIRQIDRIYLQSGIASVKWETIPEGARQIITQLMARQYPDWFGVASWSSHINGADCWTKLGVMQEHACNCDMLMIIPTRLAIELNGNSQLLTGVSTTHDLYSHLYGMAWPSGQNIIWQRDRINSLRLDFDSPSYPPSAELMGELSAVFDCEIRHWYQEPVNGIRGYDCYDRGDHVDSGEYGAGPFLPPLKVEEVTVNGQEEAAEGHHHHHH | not failed
MFITLLLFFLSAAIIYFACEFFVNGVEWVGHRFKLGATATGTVLAAFGTALPESAVTFMAVVFGTTPEQKDIGVGAAMGGPLVLATLAYAVVGLTLARTRRAGSSQVEAAINADQRRLARDQAWFMGVFVFKVALGLLAFAWKPWLGLLFLAVYGLYVKRELTREEECLDCEDLEPLKLRPRDPSPSLFWACAQTVLALAVIALASHVFVRQIELLGLAMGASPHVAALLLAPVATELPEIMNALIWVRQGKERLALANISGAMMIQATIPSAMMIQATIPSALGIFLTPWLLDAPLLAAGGFTLAAILLLWLRFRRAAMSVPALSAVGGLYALFAGYLGWHFYA | failed
MGLKGFAEGGIASIVAGCSTHPLDLIKVRMQLQGESAPIQTNLRPALAFQTSTTVNAPPLRVGVIGVGSRLIREEGMRALFSGVSATVLRQTLYSTTRMGLYDIIKGEWTDPETKTMPLMKKIGAGAIAGAIGAAVGNPADVAMVRMQADGRLPLTDRRNYKSVLDAITQMIRGEGVTSLWRGSSLTINRAMLVTSSQLASYDSVKETILEKGLLKDGLGTHVSASFAAGFVASVASNPVDVIKTRVMNMKVVAGVAPPYKGAVDCALKTVKAEGIMSLYKGFIPTVSRQAPFTVVLFVTLEQVKKLFKDYDF | failed
MPTDRSTPATRHRLGGWMASEEAHMAAYREKIAGEARAHAGERLRTPAVQELARLFDDNAVLRMSLTRAIDEALESGRKLGYASIGELMTVIDHLMTYTPPFSESSLIVCPLNAFLDWPMCMPSGHAVFRDAAVNAHLKQVLNVWCDFLGGPHSCTHLDTSAPDGWFCDEARERLGLSQFQYQEDQPHWGFASWNDFFTRRFRADARPVTAPGDPHVIVSACEAQPYHAESNLKIRDKFWIKGQPYSLRDIFTPARLPLAERFVGGDLYQAYLSAYNYHRWHAPVRGTVTHAYRVDGTYYSVAEAEGPDPAGLNDSQGYMTAVAARAVIAIDCDDPGIGTVVGVFVGMGDVSSCVIEVMPGQRIDKGEEIGYFQYGGSTYCLLFEPGVIDHFVHAPPFDDDTPVVQVNAPVAIAR | failed
MIKHYLFMAVSQVFFSFFLVLFFISSIVLLISIASVTLVIKVSFLDLVQLFLYSLPGTIFFILPITFFAACALGLSRLSYDHELLVFFSLGVSPKKMTKVFAPLSLLVSAILLVFSLILIPTSKSTYYGFLRQKKDKIDINIRAGEFGQKLGDWLVYVDKTKNNSYDNLVLFSNKSLSQESFILAQKGNINNQNGVFELNLYNGHAYFTQGDKMRKVDFEELHLRNKLKSFNSNDAAYLQGTDYLGYWKKAFGKNANKNQKRRFSQAILVSLFPLASVFLIPLFGIANPRFKTNWSYFYVLGAVGVYFLMVHVISTDLFLMTFFFPFIWAFASYLLFRKFILKRY | failed
MDPLALLRKAGLEAEGPALPLHGGDISRVWRVGRFVVKTAQDPPPGLFRAEARGLQALAERGVRVPQVHWVGEEGLVLAYLEPGPEDWEGLARTLAALHRRREGSYLAEPGFLGTFPLPGREGGEWTAFFYERCVLPLLEATWDRLQGLGPKVEALYRRPLPAEGPAPLHGDLWHGNVYFAREGPALLDPSFFVGERGVDLAMMRLFGGFPRRFWEVYGELYPVPEEVERALPRYQVYYLLAHVHFFGQGYLGALWRAISAS | failed
MAGWGIRSITGTSKLRAAMLLVVVGLLSVSGWLQRLDWLVYDEIISRQSFQPDSDIVIVAIDEESLRTIGKWPWSRELHAGLIDRLSQIGSNVVALDLLLSEPDVDHPEADKRLKTAIFTHGNVVLPVAPAQNASGDRFSLIQPLASLQRRATLGHVDVELDRDGVARRTFLYAGIDIPAFPALGLALADKGSLPNRMRLLSRMPEADKTIVNTGNSWVRSREIMVPFAGPPGTYPRISYARLLNDDDLLDDLRGKIIIVGMTATGLQQGFLTPVSLTRHNYMSGVEWHASVVDMLRNGRSIYPVPEMVAIAVTVLWVLAVLLVVNIVPGRFRSLVLLVSLAAGIGLVTMLLGVFHIWLPPGVALIGTLAVYPLQSWQRINEFIQSQFITGSCLQAVFDSVQEGVITVDAKGNILYLNQESERILGARSEQLIGKPLEQLIGVCLIPDKQDRDVNGSGSADTRPDSRIQHCVLTLPSGDRRTIRVTHRALYDRWRIPAGAVVTISDISDTLEMKQQIARQANYDVLTMLPSRNFLLSRFGELAVSARQHGAALIVCLVSVDNFSKINDAFGYHSGDALLKMIADRLLKLVCSEDLIARWSGDEFMLVVDRPVREGQELQFARKVQETINRRFEINGQEVFISASIGIRISSQPDQVDEKSEIFLDEAVSAMRRVKRQGGNGFQFYASGQMNAWTREQLEFERDFRLAIENQDKALHVLFQPIVDVQQKRVVHNEVLVRWAHPTRGLLSPGDFIPLAERVGLIGQLGDLVLWISCRIAADLAKVGQAVDISVNVASRQLLHPDFLQKVAGVLERTGLPAGRLMLEITESAVISDLPRAAEALVRLKALGVAIALDDFGTGYSSLSLLRELPLDILKIDKSFIQGIEQDHPGDEKFDFAIARAIIALGDNLGLGVIAEGVETEKHMEFLRKHHCYLQQGYYFSRPLSTTQLMQFMGRPDSIRV | failed
MSLRQDILLNNNWNFRFSHQVQGDTRRVDLPHTWNAQDALAGKIDYKRGIGNYEKALYIRPEWKGKRLFLRFDGVNSIADVFINRKHIGEHRGGYGAFIFEITDLVKYGEKNSVLVRANNGEQLDIMPLVGDFNFYGGIYRDVHLLITDETCISPLDYASPGVYLVQEVVSPQEAKVCAKVNLSNRAADGTAELQVLVTDGTKVICKESRNVSLKQGADILEQLPLLIQKPRLWNGCEDPFMYQVSISLHKDGKQIDSVTQPLGLRYYHTDPDKGFFLNGKHLPLHGVCRHQDRAEVGNALRPQHHEEDVALMREMGVNAIRLAHYPQATYMYDLMDKHGIVTWAEIPFVGPGGYADKGFVDQASFRENGKQQLIELIRQHYNHPSICFWGLFNELKEVGDNPVEYVKELNALAKQEDPTRPTTSASNQDGNLNFITENIAWNRYDGWYGSTPKTLATFLDRTHKKHPELRIGISEYGAGASIYHQQDSLKQPSASGWWHPENWQTYYHMENWKIIAERPFVWGTFVWNMFDFGAAHRTEGDRPGINDKGLVTFDRKVRKDAFYFYKANWNKQEPMIYLAEKRCRLRYQPEQTFMAFTTAPEAELFVNGVSCGKQKADTYSTVVWKNVKLTSGENIIRVTTPGKKPLTDEVTVEYKEDREGHHHHHH | not failed
GSEEEEIPFRCFICRQAFQNPVVTKCRHYFCESCALEHFRATPRCYICDQPTGGIFNPAKELMAKLQK | not failed
MSMKILKASVFVIIVFFLMPLPVVAAKKGIYCGELKGSHYGPFDYMDRFNHSEQLKIVEDFHFTSDVEDLIRGSTSSTPAKDLNYTLHAWPNHHRALVSLFKYSIKEKSTRIKGLKYPVECYFDRAIRMNMKDVQVRSIYSAFLSHRGRNKEALEQLEVAANLEPDNATILYNLGLLYFKQKNYEKASHYAEKAYALDYPLPGLRNKLIQAGKWRGSASGRSGK | failed
MIIVTGATGKLGRRIVERLLERVPADRVGVSVRDPRKAQDLADRGVRVRQGSFDDPASLVHAFEGAEQLLLVSLDRTGQECVSGHRAAIDAAVKAGVGRILYTSQMGAAHDSRFQACRDHAQTEDLLRATGLPWTALRNGFYASSALQFLESARHTGDIALPADGPVAWTGHDDLAEATAAILAEEHRFEGPTPPLTGPAALDFDTVAEIASQTTGRPFTRTVVPDDAFREQVLAHGAPAPIGNLMLSIFAAARNGEFTAVDSTLAELIGREPATFRTQLEHAWAE | failed
MKVGVIGASEMAGSAIYKLAKQNLEIDVTGIVRHESKAKKVLGDDAKLIVGDIFALSDNILDKFDVIIDAFGTDPKNAEEHVILAKKLINLVRKNKIRVIFILGAGSLHTGDDEHLVVDDIAQMDNADTWINTPRQQLKELEYLNSIDDVDWLGISPALQFEAGPATEYIEGTDELLYNKDGDSKLTSGTMATVVIKETVDSVHHQERITIANALEHHHHHH | not failed

Reference: a protein production outcome set (Wang et al. 2014)
